Data reported in PMC7367873, “Dissecting the sequence determinants for dephosphorylation by the catalytic subunits of phosphatases PP1 and PP2A” (Nature Communications, 2020).

Key:
PP2Ac = biological target: T1, PP2Ac (Homo sapiens, UniProt P67775); assay: Phosphopeptide library dephosphorylation followed by mass spectrometry (PLDMS), PP2Ac; type: biochemical; conditions: all libraries, 25 nM PP2Ac, 100 µM library, 4 min, 25 °C, pH 7.5; library distribution 60% Ser to 40% Thr
T1 construct: purchased Cayman Chemical 10011237
T1 sequence (P67775 1-308 limits assumed): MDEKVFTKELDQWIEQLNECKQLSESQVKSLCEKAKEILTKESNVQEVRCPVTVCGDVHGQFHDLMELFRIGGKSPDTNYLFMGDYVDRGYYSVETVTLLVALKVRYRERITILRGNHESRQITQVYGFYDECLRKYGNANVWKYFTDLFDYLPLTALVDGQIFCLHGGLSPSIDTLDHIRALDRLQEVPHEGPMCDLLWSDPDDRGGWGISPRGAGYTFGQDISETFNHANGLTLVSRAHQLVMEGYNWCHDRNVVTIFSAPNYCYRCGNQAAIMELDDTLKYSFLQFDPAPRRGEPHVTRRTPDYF
From the text: (§1) In order to determine phosphatase specificity on the phosphopeptide level, we developed an in vitro phosphopeptide library dephosphorylation followed by mass spectrometry approach (PLDMS, Fig. 1a; see the methods for details). In this approach, phosphopeptide libraries would be treated with PP1, PP2A, or left untreated, purified, and analyzed by LC-MS/MS measurements. In the first step, design, synthesis, and validation of phosphopeptide libraries were required. The phosphopeptide libraries were designed to yield an even distribution of amino acids in the different randomized positions and to give high coupling efficiency during synthesis, thus reducing the number of by-products. […]
(§2) The individual libraries were incubated with recombinant PP1c or PP2Ac (Supplementary Fig. 1a) and the reaction was stopped by shifting the pH from 7.5 to 3 when 30–50% of the library was dephosphorylated, depending on phosphatase activity (see the methods for details, Supplementary Fig. 1b). Peptides were then separated from the recombinant protein by size-exclusion chromatography (SEC) (Supplementary Fig. 1c) and analyzed by LC-MS/MS (Fig. 1a). […]
(§3) For LC-MS analysis, the treated/ctrl peptide libraries were purified by SEC. […] A 0.1 M ammonium acetate buffer (pH 5) was used throughout the column equilibration and purification and the elution profile was recorded at 280 nm. […]

PP1c = biological target: T2, PP1c (Homo sapiens, UniProt P62136); assay: Phosphopeptide library dephosphorylation followed by mass spectrometry (PLDMS), PP1c; type: biochemical; conditions: all libraries, 25 nM PP1c, 100 µM library, 2 min, 25 °C, pH 7.5; library distribution 60% Ser to 40% Thr
T2 construct: His tag with TEV site (N, cleaved yes); intein (pTXB1) (C, cleaved yes); made in house; host or cells: E. coli BL21Star(DE3)pRARE
T2 sequence (P62136 whole entry): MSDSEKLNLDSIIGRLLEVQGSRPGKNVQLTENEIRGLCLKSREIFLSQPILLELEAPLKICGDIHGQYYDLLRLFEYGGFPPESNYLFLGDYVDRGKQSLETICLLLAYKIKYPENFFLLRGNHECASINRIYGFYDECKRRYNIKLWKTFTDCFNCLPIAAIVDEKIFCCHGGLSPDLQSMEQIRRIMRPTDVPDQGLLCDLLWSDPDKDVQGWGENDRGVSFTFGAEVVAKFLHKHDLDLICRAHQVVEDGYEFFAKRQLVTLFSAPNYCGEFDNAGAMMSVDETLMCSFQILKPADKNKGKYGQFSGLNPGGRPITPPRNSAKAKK
From the text: as §1, §2, §3

Substance | pThr share of all sites dephosphorylated by PP2Ac (PP2Ac) | pThr share of all sites dephosphorylated by PP1c (PP1c)
PP2Ac: His-tagged recombinant PPP2CA ΔL309, purchased from Cayman Chemical | 83% | –
PP1c: recombinant catalytic subunit of PP1 | – | 73%
